# Patent US20130236944A1, “METHODS FOR THE INACTIVATION OF ANTIBIOTICS” (priority 2011, published 2013)
# B1: Lipase from Pseudomonas cepacia P1: Lipase from Pseudomonas cepacia (also called Bulkholderia cepacia) P1, obtained from Codexis (protein, UniProt P22088 45-364, looked up)
# Triacylglycerol lipase: AAGYAATRYPIILVHGLSGTDKYAGVLEYWYGIQEDLQQNGATVYVANLSGFQSDDGPNGRGEQLLAYVKTVLAATGATKVNLVGHSQGGLSSRYVAAVAPDLVASVTTIGTPHRGSEFADFVQDVLAYDPTGLSSSVIAAFVNVFGILTSSSHNTNQDALAALQTLTTARAATYNQNYPSAGLGAPGSCQTGAPTETVGGNTHLLYSWAGTAIQPTLSVFGVTGATDTSTLPLVDPANVLDLSTLALFGTGTVMINRGSGQNDGLVSKCSALYGKVLSTSYKWNHLDEINQLLGVRGAYAEDPVAVIRTHANRLKLAGV
# Assay: Inactivation of amoxicillin by lipases
# Assay type: biochemical, Bacillus subtilis
# Conditions: in 168 h, antibiotic 5.15 μg/, approximately 20° C.
# Method: The plates are incubated 18 hours at 37° C.
# In this example, the indicator bacterial strains sensitive to beta-lactam antibiotics (e.g. amoxicillin) and macrolide antibiotics were Bacillus subtilis (CIP 52.62) and Micrococcus luteus (CIP 53.45) respectively. All inactivation studies were performed with final antibiotic concentrations of 5.15 μg/. Lipases were used at final concentrations of 2.5 mg/mL (referred as ‘High concentration’) and 0.5 mg/mL (referred as ‘Low concentration’); they were obtained from Codexis.
molecule,measurement,setting,value
B1,Amoxicillin inactivation,"enzyme H (High concentration, 2.5 mg/mL)",+++ in 168 h (100% inactivation = the residual concentration of antibiotic is smaller than the limit of detection of the microbiological test)
same,Amoxicillin inactivation,"enzyme L (Low concentration, 0.5 mg/mL)",+++ in 168 h (100% inactivation = the residual concentration of antibiotic is smaller than the limit of detection of the microbiological test)
